According to patent US20130315914A1 (NOVIMMUNE, published 2013):
Numbering of substitutions follows the chain as printed.

B1: 1E11.C2 antibody (IgG1) (antibody, V domains shown)
VH: QVQLQESGPGLVKPSDTLSLTCAVSGYPIRFGYSWHWIRQPPGKGLEWMGYIHYSGYTDFNPSLKTRITISRDTSKNQFSLKLSSVTAVDTAVYYCARKDSGNYFPYWGQGTLVTVSS
VL: EIVLTQSPDFQSVTPKEKVTITCRASQSISDHLHWYQQKPDQSPKLLIKYASHAISGVPSRFSGSGSGTDFTLTINSLEAEDAATYYCQQGHSFPLTFGGGTKVEIK
B2: humanized anti-TLR4 antibody 15C1 (antibody, V domains shown)
VH: B1 VH with P28S, R30T, F31G, S101P, G102S, N103D, Y104A
VL: B1 VL
notes: also called 15C1 Mab; parental antibody 15C1
B3: 1E11.C2E3 antibody (IgG1) (antibody, V domains shown)
VH: B1 VH
VL: B1 VL with H92Y, S93D
B4: 1E11.C4 antibody (IgG1) (antibody, V domains shown)
VH: B1 VH with Y27F, R30G, F31Q
VL: B1 VL

Assays:
[1] = target: human TLR4 in human whole blood (human); experiment: cell-based or functional assay
[2] = target: T1, cynomolgus monkey TLR4 in cynomolgus monkey whole blood (cynomolgus monkey, UniProt Q9TSP2 24-826 (Papio anubis entry)); experiment: cell-based or functional assay
T1 chain: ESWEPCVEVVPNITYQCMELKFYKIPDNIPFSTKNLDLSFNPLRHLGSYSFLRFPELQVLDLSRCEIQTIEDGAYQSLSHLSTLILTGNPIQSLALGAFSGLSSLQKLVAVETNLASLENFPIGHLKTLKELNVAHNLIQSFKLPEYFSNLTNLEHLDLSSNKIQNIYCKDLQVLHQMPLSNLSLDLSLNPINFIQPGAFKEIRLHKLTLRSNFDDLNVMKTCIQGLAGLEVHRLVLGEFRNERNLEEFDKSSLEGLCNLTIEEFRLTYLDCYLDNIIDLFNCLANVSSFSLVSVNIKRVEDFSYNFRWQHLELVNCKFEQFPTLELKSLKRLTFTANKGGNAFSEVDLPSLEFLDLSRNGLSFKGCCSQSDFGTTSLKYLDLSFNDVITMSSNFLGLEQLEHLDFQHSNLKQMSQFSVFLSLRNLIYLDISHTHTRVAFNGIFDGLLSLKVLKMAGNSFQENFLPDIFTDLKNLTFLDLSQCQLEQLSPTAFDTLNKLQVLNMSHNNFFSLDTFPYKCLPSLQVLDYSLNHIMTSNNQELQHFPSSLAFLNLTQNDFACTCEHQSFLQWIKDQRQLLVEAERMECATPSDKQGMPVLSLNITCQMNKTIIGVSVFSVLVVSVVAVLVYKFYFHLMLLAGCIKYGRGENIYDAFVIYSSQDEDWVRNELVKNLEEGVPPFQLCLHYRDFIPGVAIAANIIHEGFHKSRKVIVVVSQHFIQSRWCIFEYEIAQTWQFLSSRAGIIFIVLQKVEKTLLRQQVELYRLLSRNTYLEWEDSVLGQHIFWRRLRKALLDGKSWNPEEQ

[3] = target: T2, soluble histidine-tagged form of human TLR4/MD2 complex (human, UniProt Q9Y6Y9 19-160); experiment: competitive ELISA; 15C1 reference EC50 divided by variant EC50
T2 sequence (Q9Y6Y9 19-160, one chain of several): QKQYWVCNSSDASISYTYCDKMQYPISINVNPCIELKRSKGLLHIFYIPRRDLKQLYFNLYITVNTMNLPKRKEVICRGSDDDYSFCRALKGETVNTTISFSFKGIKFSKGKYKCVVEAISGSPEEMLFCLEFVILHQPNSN
Experimental: (§1) The VH and VL cDNA sequences in their appropriate expression vectors were transfected into mammalian cells using the Fugene 6 Transfection Reagent (Roche, Basel, Switzerland). Briefly, Peak cells were cultured in 6-well plates at a concentration of 6×10⁵ cells per well in 2 mL culture media containing fetal bovine serum. The expression vectors, encoding the candidate VH and VL sequences, were co-transfected into the cells using the Fugene 6 Transfection Reagent according to manufacturer's instructions. One day following transfection, the culture media was aspirated, and 3 mL of fresh serum-free media was added to cells and cultured for three days at 37° C. Following three days culture period, the supernatant was harvested for IgG purified on protein G-Sepharose 4B fast flow columns (Sigma, St. Louis, Mo.) according to manufacturer's instructions. Briefly, supernatants from transfected cells were incubated overnight at 4° C. with ImmunoPure (G) IgG binding buffer (Pierce, Rockford Ill.). Samples were then passed over Protein G-Sepharose 4B fast flow columns and the IgG consequently purified using elution buffer. The eluted IgG fraction was then dialyzed against PBS and the IgG content quantified by absorption at 280 nm. Purity and IgG integrity were verified by SDS-PAGE. Relative binding potency of 1E11 variants was assessed by competitive ELISA. Briefly, 15C1 antibody was coated overnight in a 96-well Maxisorp plate and then blocked with PBS-BSA. The 15C1 reference antibody and affinity matured variants of 1E11 were added to the plate at a fixed concentration and a 3.5-fold serial dilution of the samples was performed. Then, soluble histidine-tagged form of human TLR4/MD2 complex was added to the plate at a fixed concentration. After incubation one hour at 37° C., the plate was washed and a solution of Penta-His-HRP antibody was distributed, this step was followed by an additional incubation time of one hour at 37° C. Finally, the plate was washed and TMB was added for colorimetric revelation, the enzymatic reaction is stopped by H₂SO₄ solution. The results were determined according to the absorbance at 450 nm. The relative binding potency was calculated by dividing the reference EC₅₀ with affinity matured variants EC₅₀ (Table 8).

[4] = target: T2, soluble histidine-tagged form of human …; experiment: competitive ELISA; coated 15C1 as competitor, soluble His-tagged human TLR4/MD2, Penta-His-HRP
Experimental: as §1

[5] = target: T3, cynomolgus monkey TLR4 expressed on stably transfected CHO-K1 cells (cynomolgus monkey, UniProt Q9TSP2 24-826 (Papio anubis entry)); experiment: flow cytometry; purified IgG on CHO cells expressing cynomolgus TLR4
T3 construct: Transfected alone; also called CHO cells expressing the cynomolgus monkey TLR4
T3 chain: T1 chain
Experimental: 10⁵ CHO cells or CHO cells expressing the cynomolgus monkey TLR4 were incubated in phosphate-buffered saline, 2% bovine serum albumin with different concentrations of purified antibodies selected by FMAT (1A1, 1A6, 1B12, 1C7, 1C10, 1C12, 1D10, 1E11, 1G12) with 15C1 as control. Cells were washed in phosphate-buffered saline, 2% bovine serum albumin and incubated in Alexa Fluor® 647 goat anti human IgG (H+L) (1:200; Invitrogen). Cells were analyzed using a FACS calibur cytometer (BD Biosciences).

[6] = target: T3, cynomolgus monkey TLR4 expressed on …; experiment: summary grade (species binding potential); assay not given
[7] = target: T2, soluble histidine-tagged form of human …; experiment: competitive ELISA, as retold in Example 9 (Table 8 prints 39 for this clone)
Experimental: Briefly, supernatants from transfected cells were incubated overnight at 4° C. with ImmunoPure (G) IgG binding buffer (Pierce, Rockford Ill.). Samples were then passed over Protein G-Sepharose 4B fast flow columns and the IgG consequently purified using elution buffer. The eluted IgG fraction was then dialyzed against PBS and the IgG content quantified by absorption at 280 nm. Purity and IgG integrity were verified by SDS-PAGE. Relative binding potency of 1E11 variants was assessed by competitive ELISA. Briefly, 15C1 antibody was coated overnight in a 96-well Maxisorp plate and then blocked with PBS-BSA. The 15C1 reference antibody and affinity matured variants of 1E11 were added to the plate at a fixed concentration and a 3.5-fold serial dilution of the samples was performed. Then, soluble histidine-tagged form of human TLR4/MD2 complex was added to the plate at a fixed concentration. After incubation one hour at 37° C., the plate was washed and a solution of Penta-His-HRP antibody was distributed, this step was followed by an additional incubation time of one hour at 37° C. Finally, the plate was washed and TMB was added for colorimetric revelation, the enzymatic reaction is stopped by H₂SO₄ solution. The results were determined according to the absorbance at 450 nm. The relative binding potency was calculated by dividing the reference EC₅₀ with affinity matured variants EC₅₀ (Table 8). […]

[8] = target: T2, soluble histidine-tagged form of human …; experiment: competitive ELISA; lower end of the range, tied to 1E11.C4 by Table 8 (2.5 there)
Experimental: The VH and VL cDNA sequences in their appropriate expression vectors were transfected into mammalian cells using the Fugene 6 Transfection Reagent (Roche, Basel, Switzerland). Briefly, Peak cells were cultured in 6-well plates at a concentration of 6×10⁵ cells per well in 2 mL culture media containing fetal bovine serum. The expression vectors, encoding the candidate VH and VL sequences, were co-transfected into the cells using the Fugene 6 Transfection Reagent according to manufacturer's instructions. One day following transfection, the culture media was aspirated, and 3 mL of fresh serum-free media was added to cells and cultured for three days at 37° C. Following three days culture period, the supernatant was harvested for IgG purified on protein G-Sepharose 4B fast flow columns (Sigma, St. Louis, Mo.) according to manufacturer's instructions. Briefly, supernatants from transfected cells were incubated overnight at 4° C. with ImmunoPure (G) IgG binding buffer (Pierce, Rockford Ill.). […] The eluted IgG fraction was then dialyzed against PBS and the IgG content quantified by absorption at 280 nm. […] Relative binding potency of 1E11 variants was assessed by competitive ELISA. […] The results were determined according to the absorbance at 450 nm. The relative binding potency was calculated by dividing the reference EC₅₀ with affinity matured variants EC₅₀ (Table 8).

| Binder | IC50, inhibition of IL-6 production in human whole blood assay [1] | fold better than 15C1 at blocking human TLR4 (human whole blood assay) [1] | IC50, inhibition of IL-6 production in cynomolgus monkey whole blood assay [2] | Relative binding potency increase [3] | EC50 [4] | binding result [5] | binding result [6] | increase in binding potency (fold, compared to 15C1) [7] | relative binding potency (fold-increase compared to 15C1) [8] |
| --- | --- | --- | --- | --- | --- | --- | --- | --- | --- |
| B1 | 0.07 µg/mL | 3 fold | ~0.5 µg/mL | 17 fold | 0.036 µg/mL |  |  |  |  |
| B2 | ~0.22 µg/mL |  |  |  | 0.63 µg/mL | no binding |  |  |  |
| B3 | 0.05 µg/mL | 5 fold |  | 39 fold | 0.016 µg/mL |  | binds | 40 fold |  |
| B4 |  |  |  | 2.5 fold | 0.251 µg/mL |  | binds |  | 3 fold |
